The values below are quoted from earlier work in PMC3791513.

The term Kd denotes the free concentration of one partner at which half of the binding sites on the other are occupied at equilibrium, for simple one-to-one binding.

This series has as its target GPR77 (Homo sapiens) (UniProt Q9P296).

Chain of GPR77 (Homo sapiens) (Q9P296 whole entry): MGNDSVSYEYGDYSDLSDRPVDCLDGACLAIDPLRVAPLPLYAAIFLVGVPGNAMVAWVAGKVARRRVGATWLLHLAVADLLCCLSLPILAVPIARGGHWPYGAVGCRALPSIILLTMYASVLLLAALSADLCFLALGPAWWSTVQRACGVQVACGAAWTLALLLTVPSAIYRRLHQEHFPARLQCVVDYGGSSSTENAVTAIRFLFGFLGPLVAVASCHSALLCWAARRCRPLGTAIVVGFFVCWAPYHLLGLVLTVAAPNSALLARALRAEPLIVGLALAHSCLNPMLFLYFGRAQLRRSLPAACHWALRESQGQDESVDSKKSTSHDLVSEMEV
Chain of complement anaphylatoxin C5a C5a (P01031 675-754): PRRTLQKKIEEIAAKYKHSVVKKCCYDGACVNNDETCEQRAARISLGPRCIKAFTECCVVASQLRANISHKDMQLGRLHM

For the substance “complement anaphylatoxin C5a C5a (from UniProt P01031)”, the Kd is 2.5 nM.
